Target: recombinant human FcγRIIa (131H)-glutathione-S-transferase (human) (UniProt P12318)
Experiment: AlphaScreen competition: the antibody inhibits binding of FcγRIIa (131H)-GST to biotinylated human IgG1 (m6)

IC50 (read off the curve) [µM] | Substance
0.02 | romosozumab PARG (SEQ ID NO: 8) C-terminal variant (antibody)
0.1 | wild-type romosozumab (antibody)
